{
  "source": "patent US20240132617A1",
  "about": "(VISTERRA, published 2024)",
  "binders": {"B1": {"name": "Ab1 (anti-C3b VHH fused to modified IgG4 Fc) (Fc fusion)", "chain": "EVQLLESGGGLVQPGGSLRLSCAASGRTFSNYHMGWFRQAPGQGREFVATIIRTGTTIYYADSVKGRFTISRDNSKNTLYLQMNSLRAEDTAVYYCAAATSGWHIKTVTPYEYWGQGTLVTVSSESKYGPPCPPCPAPEVEGGPSVFLFPPKPKDTLMISRTPEVTCVVVGVSQEDPEVQFNWYVDGVEVHNAKTKPREEQFNSTYRVVSVLQVLHVDWLNGKEYKCKVSNKGLPSSIEKTISKAKGQPREPQVYTLPPSQEEMTKNQVSLTCLVKGFYPSDIVVEWESNGQPENNYKTTPPVLDSDGSFFLYSRLTVDKSRWQEGNVFSCSVMHEALHNHYTQKSLSLSLGK", "notes": "In the assay Ab1 was in plasma of dosed Cynomolgus monkeys; also called anti-C3b Ab1; C3b antibody"}},
  "target": "T1, human C3b (human, UniProt P01024 23-667; P01024 749-1663, limits assumed)",
  "T1 construct": "C3b is its two-chain fragment (beta chain plus alpha' chain, without C3a); also called complement component 3b",
  "T1 sequence (P01024 23-667 limits assumed, chain 1 of 2)": "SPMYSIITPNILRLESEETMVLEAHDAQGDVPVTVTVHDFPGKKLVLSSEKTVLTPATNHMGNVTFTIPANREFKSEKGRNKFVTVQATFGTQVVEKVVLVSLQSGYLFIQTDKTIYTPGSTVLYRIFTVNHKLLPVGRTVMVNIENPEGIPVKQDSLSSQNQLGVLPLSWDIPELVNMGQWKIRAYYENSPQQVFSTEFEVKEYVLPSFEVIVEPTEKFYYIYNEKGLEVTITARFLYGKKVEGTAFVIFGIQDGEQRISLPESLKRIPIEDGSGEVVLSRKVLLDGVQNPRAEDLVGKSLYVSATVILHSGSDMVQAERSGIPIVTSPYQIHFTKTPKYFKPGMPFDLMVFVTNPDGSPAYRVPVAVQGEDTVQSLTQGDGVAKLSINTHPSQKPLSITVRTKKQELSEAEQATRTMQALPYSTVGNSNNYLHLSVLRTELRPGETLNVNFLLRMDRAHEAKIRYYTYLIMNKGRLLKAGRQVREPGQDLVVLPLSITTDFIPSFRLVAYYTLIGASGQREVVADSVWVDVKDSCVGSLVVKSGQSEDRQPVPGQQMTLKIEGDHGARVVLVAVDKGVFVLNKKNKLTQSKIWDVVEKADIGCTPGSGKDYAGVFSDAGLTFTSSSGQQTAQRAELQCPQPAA",
  "T1 sequence (P01024 749-1663 limits assumed, chain 2 of 2)": "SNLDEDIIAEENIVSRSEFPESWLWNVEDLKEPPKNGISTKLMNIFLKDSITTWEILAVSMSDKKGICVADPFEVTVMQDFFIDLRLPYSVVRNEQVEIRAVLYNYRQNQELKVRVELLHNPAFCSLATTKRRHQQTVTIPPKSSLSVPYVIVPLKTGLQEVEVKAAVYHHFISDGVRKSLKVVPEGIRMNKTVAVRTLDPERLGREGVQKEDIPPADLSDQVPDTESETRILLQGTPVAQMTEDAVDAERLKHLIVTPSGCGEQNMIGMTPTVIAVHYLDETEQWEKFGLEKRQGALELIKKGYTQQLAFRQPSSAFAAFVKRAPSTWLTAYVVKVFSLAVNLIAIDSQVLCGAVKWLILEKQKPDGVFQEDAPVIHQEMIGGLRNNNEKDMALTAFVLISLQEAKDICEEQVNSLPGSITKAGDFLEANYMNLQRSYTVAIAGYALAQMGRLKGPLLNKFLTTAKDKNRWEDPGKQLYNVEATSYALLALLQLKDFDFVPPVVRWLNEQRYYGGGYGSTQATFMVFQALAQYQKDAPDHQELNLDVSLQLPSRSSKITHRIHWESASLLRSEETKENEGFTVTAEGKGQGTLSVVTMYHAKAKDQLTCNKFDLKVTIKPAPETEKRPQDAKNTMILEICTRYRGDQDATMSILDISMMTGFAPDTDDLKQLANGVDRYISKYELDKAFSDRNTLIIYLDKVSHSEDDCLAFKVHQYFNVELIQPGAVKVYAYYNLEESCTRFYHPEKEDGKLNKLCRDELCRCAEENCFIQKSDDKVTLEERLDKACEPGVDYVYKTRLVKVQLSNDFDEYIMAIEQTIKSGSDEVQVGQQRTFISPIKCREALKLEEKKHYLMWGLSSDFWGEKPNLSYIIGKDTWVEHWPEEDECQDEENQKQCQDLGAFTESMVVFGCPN",
  "experiment": "antibody levels measured by capture on human C3b versus Cynomolgus C3b (FIG. 1C and FIG. 1D)",
  "procedure": "In this study, pharmacokinetics of anti-C3b antibodies was determined in non-human primates. First, Ab1 (anti-C3b VHH fused to modified IgG4 Fc) and control Ab (IC12; control antibody) were intravenously administered at 10 mg/kg to Cynomolgus monkeys. Plasma samples were collected pre-administration and at 30 minutes, 6 hr, 24 hr, 48 hr, 120 hr, 336 hr, 456 hr, 672 hr, and 792 hr post administration, and % of antibody remaining was measured.\nTo confirm that the C3b antibody of the present invention binds to human C3b with high affinity, in addition to Cynomolgus C3b, concentrations of antibodies to human C3b or Cynomolgus C3b were measured.",
  "data": [
    {"binder": "B1", "values": [
      {"measurement": "fold greater affinity as compared to Cynomolgus C3b", "value": "~100", "unit": "fold"}
    ]}
  ]
}
